The results in this text go back to US20230365670A1 (SCOUT BIO, published 2023).

Positions count from the first letter of the chain named.

Experiment [1] addresses T1, mouse (murine) NGF (mouse (murine), UniProt P01139 122-241, limits assumed).
T1 construct: also called muNGF
The experiment is described as follows: ELISA, plates coated with 0.1 µg/ml muNGF, antibody at 100 to 1.56 ng/ml for the binding curve, goat anti-feline IgG-HRP detection. The protocol:
Pharmacokinetic (PK) studies were conducted in healthy cats. Four animals were administered each of the felinized anti-NGF antibodies (fe_αD11, fe_αD11+HCCDR1(F/L) and fe_αD11+HCCDR2(LN)) subcutaneously (s.c.) at 2.0 mg/kg on Days 0, 21, 42 and 63. Serum concentrations of the antibodies were assessed over 91 days. The concentration of each antibody in the serum was determined using an NGF-binding ELISA. Briefly, ELISA plates were coated with 0.1 μg/ml mouse (murine) NGF (muNGF) and blocked with PBS/0.05% Tween 20/1% BSA. muNGF-coated wells were then incubated for 1 hour at room temperature with antibody preparations, diluted in PBS/0.05% Tween 20/1% BSA (100 μl/well). Antibody concentrations ranging from 100 ng/ml to 1.56 ng/ml were used to establish a binding curve. After washing, the plates were incubated with a 1/5,000 dilution of goat anti-feline IgG-HRP in PBS/0.05% Tween 20/1% BSA. Plates were washed with PBS/0.05% Tween 20 and developed by the addition of TMB substrate. Development was stopped by the addition of 2M H₂SO₄, absorbance read at 450 nm and background values were subtracted from the absorbance readings. The non-compartmental pharmacokinetic parameters of the three felinized anti-NGF antibodies post-dose 1 and 4 were calculated using PKsolver. software.

Experiment [2] addresses T1, mouse (murine) NGF. The experiment is described as follows: ELISA, plates coated with 0.1 µg/ml muNGF, antibody at 100 to 1.56 ng/ml for the standard curve, goat anti-canine IgG-HRP detection. The protocol:
Pharmacokinetic (PK) studies were conducted in healthy dogs. Four animals were administered purified ca_αD11_HCCDR2(LN) subcutaneously (SC) at 1.0 mg/kg body weight on Day 0 and Day 28 of the study. The ca_αD11_HCCDR2(LN) antibody carries the same CDR sequences as described in Tables 3 and 4, below. Serum concentrations of ca_αD11_HCCDR2(LN) were assessed over 56 days using an NGF-binding ELISA, as detailed below. Pharmacokinetic parameters were determined using PKSolver software (Zhang Y et al. Computer Methods and Programs in Biomedicine. 2010; 99(3):306-314). The emergence of anti-drug antibodies was assessed at Days 28 and 56 using a bridging electrochemiluminescence (ECL) assay, as detailed below.
The concentration of ca_αD11_HCCDR2(LN) in dog serum was determined using an NGF-binding ELISA. Briefly, ELISA plates were coated with 0.1 μg/ml murine NGF (muNGF) and blocked with PBS/0.05% Tween 20/1% BSA. muNGF coated wells were incubated for 1 hour at room temperature with serum diluted in PBS/0.05% Tween 20/1% BSA (100 μl/well). Antibody concentrations ranging from 100 ng/ml to 1.56 ng/ml were used to establish a standard curve. After washing, the plates were incubated with a 1/10,000 dilution of goat anti-canine IgG-HRP in PBS/0.05% Tween 20/1% BSA. […] Development was stopped by the addition of 2M H₂SO₄ and absorbance read at 450 nm and background was subtracted.

T1 sequence (P01139 122-241 limits assumed): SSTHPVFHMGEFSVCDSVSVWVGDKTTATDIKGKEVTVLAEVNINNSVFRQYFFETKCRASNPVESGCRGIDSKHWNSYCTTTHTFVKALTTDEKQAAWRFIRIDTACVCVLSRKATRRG

B1: fe_αD11_HCCDR1(F/L) (felinized anti-NGF monoclonal antibody, F to L at position 2 of heavy chain CDR1) (antibody, V domains shown)
VH: QVQLMESGADLVQPSESLRLTCVASGLSLTNNNVNWVRQAPGKGLEWMGGVWAGGATDYNSALKSRLTITRDTSKNTVFLQMHSLQSEDTATYYCARDGGYSSSTLYAMDAWGQGTTVTVSA
VL: DIEMTQSPLSLSATPGETVSISCRASEDIYNALAWYLQKPGRSPRLLIYNTDTLHTGVPDRFSGSGSGTDFTLKISRVQTEDVGVYFCQHYFHYPRTFGQGTKLELKR
notes: also called fe1_αD11_HCCDR1(F/L)
In the case of B1, the binding result with mouse (murine) NGF [1] is recorded as “binds”.

B2: fe_αD11 (felinized anti-NGF monoclonal antibody with the CDR sequences of rat αD11) (antibody, V domains shown)
VH: B1 VH with M5V, D10E, S15G, V23A, L27F
VL: B1 VL with A13V, T18S
notes: also called fe1_αD11
As to B2, the binding result in the experiment with mouse (murine) NGF [1] is “binds”.

B3: fe_αD11_HCCDR2(L/V) (felinized anti-NGF monoclonal antibody, L to V at position 14 of heavy chain CDR2) (antibody, V domains shown)
VH: B1 VH with M5V, A9G, S15G, E16G, L27F, L63V
VL: B1 VL
notes: also called fe_αD11+HCCDR2(LN); fe_αD11_HCCDR2(LN)
In the case of B3, the binding result with mouse (murine) NGF [1] is listed as “binds”.

B4: ca_αD11_HCCDR2(L/V) (caninized anti-NGF antibody) (antibody, V domains shown)
VH: EVTLQESGPGLVKPSQTLSLTCVVSGFSLTNNNVNWVRQRPGRGLEWMGGVWAGGATDYNSAVKSRISITRDTAKNQVSLQLSSMTTEDTAVYYCARDGGYSSSTLYAMDAWGQGTLVTVSS
VL: EIVMTQSPASLSLSQEEKVTITCRASEDIYNALAWYQQKPGQAPKLLIYNTDTLHTGVPSRFSGSGSGTDYSFTISSLEPEDVAVYFCQHYFHYPRTFGAGTKVELK
notes: The antibody was detected with goat anti-canine IgG-HRP; also called ca_αD11_HCCDR2(LN); CaNGF
Regarding B4, in the experiment with mouse (murine) NGF [2], the binding result is “binds”.
